The target in data set [1] is GST-gag (HIV-1 gag polyprotein, strain LAI) (HIV-1 (LAI)) (UniProt P03348). Briefly: filter. As to conditions: for Kd: 5 mM MgCl2, 37 C.
Data set [2] has the same target. Briefly: competition. Particulars: 1 nM gag, scale: fold excess unlabeled Psi for 50% competition.
Data set [3] has as its system glutathione S-transferase (GST). Briefly: filter. Particulars: GST alone, low affinity.
The mark [4] stands for this setting: 50 mM Tris pH 7.5, 140 mM KCl, 5 mM NaCl.

What is called Kd is the free concentration of one partner at which half of the binding sites on the other are occupied at equilibrium, for simple one-to-one binding. In turn, “GGGAAAAGCGAAUCAUACACAAGANNNNNNNNNNNNNNNNNNNNNNNNNNNNNNNNNNNNNNNNNNNNNNNNNNGCUCCGCCAGAGACCAACCGAGAA [SELEX B round 8 RNA pool]” displayed a Kd in data set [1] (setting [4]) of 1.1 nM. This substance also registered a fold excess of unlabeled Psi for 50% competition in data set [2] (150 pM labeled pool) of 630. In data set [1] (4.0% at 0.1 nM, 6.0% without gag, negative control), “GGGAGACAAGAAUAAACGCUCAANNNNNNNNNNNNNNNNNNNNNNNNNNNNNNNNNNNNNNNNNNNNNNNNNNUUCGACAGGAGGCUCACAACAGGC [SELEX A round 0 RNA pool]” showed a binding signal (% bound at 10 nM gag) of 3.5. Regarding “GGGAAAAGCGAAUCAUACACAAGANNNNNNNNNNNNNNNNNNNNNNNNNNNNNNNNNNNNNNNNNNNNNNNNNNGCUCCGCCAGAGACCAACCGAGAA [SELEX B round 0 RNA pool]”, the Kd in data set [1] (setting [4]) is 1000 nM.

Substance “HIV-1 Psi RNA (456 nt, transcribed from XhoI-linearized pBsPVR789)” gave a binding signal (% bound at 10 nM gag) in data set [1] (13.4% at 0.1 nM, 14.7% without gag, positive control) of 87. Also, the Kd in data set [1] (SELEX A experiment, 50 mM Tris pH 7.5, 200 mM KOAc) came out at 1.1 nM; in data set [1] (SELEX B experiment, 50 mM Tris pH 7.5, 140 mM KCl, 5 mM NaCl), 5.2 nM. In addition, the fold excess of unlabeled Psi for 50% competition in data set [2] (150 pM labeled Psi) worked out at 20. In data set [1] (0.6% at 0.1 nM, 0.6% without gag), “GGGAGACAAGAAUAAACGCUCAAUCUCGUAUCAGCACACCGGUACAAAGAGGAUGCAAAUNCGCCUGUGACUUCGACAGGAGGCUCACAACAGGC [SW10.12]” showed a binding signal (% bound at 10 nM gag) of 11.2. In turn, “GGGAGACAAGAAUAAACGCUCAANNNNNNNNNNNNNNNNNNNNNNNNNNNNNNNNNNNNNNNNNNNNNNNNNNUUCGACAGGAGGCUCACAACAGGC [SELEX A round 10 RNA pool]” had a Kd in data set [1] (50 mM Tris pH 7.5, 200 mM KOAc, 10000-fold tRNA) of 1.5 nM. In turn, random RNA displayed a Kd in data set [3] above 10000 nM. For “GGGAAAAGCGAAUCAUACACAAGANNNNNNNNNNNNNNNNNNNNNNNNNNNNNNNNNNNNNNNNNNNNNNNNNNGCUCCGCCAGAGACCAACCGAGAA [SELEX B round 4 RNA pool]”, the Kd in data set [1] (setting [4]) was 8.5 nM. Moreover, the fold excess of unlabeled Psi for 50% competition in data set [2] (150 pM labeled pool) amounted to 74.

The record behind these values is patent US5726017.
